From patent US11819531B2, “Multifunctional zwitterionic polymer conjugates” (Kodiak Sciences Inc., priority 2009, dated 2023) come the findings set out here.

The subject of the data set is Liver esterase from rabbit liver. Put plainly: Camptothecin release study from camptothecin grafted copolymer (esterase incubation, GPC at 370 nm). Type of data set: in vitro ADME. The settings on record: copolymer approximately 10 mg/ml in Tris Buffer, pH=8.0, rabbit liver esterase, 37° C. The method, then: Samples of camptothecin grafted copolymer were prepared at approximately 10 mg/ml in Tris Buffer, pH=8.0. Liver esterase from rabbit liver (Sigma-Aldrich E0887-IKU, Lot #061K74451) was added to the sample and the sample was incubated at 37° C. for up to 65 hours.
GPC analysis of the samples was made using an HPLC system consisting of a Waters Alliance 2995 with Waters 2410 Refractive Index Detector, Waters 2996 Photodiode Array Detector, and a Shodex Protein KW-803 column. The mobile phase used for the elution was phosphate buffered saline containing 10% absolute ethanol. The flow rate was set to 1 ml/min and the presence of camptothecin monitored at 370 nm. Ten microliter injections of the samples were made at each time point.

Take “Camptothecin PC-Copolymer [camptothecin grafted copolymer]”: the “Camptothecin Released” value by setting is: (Time 0 h) 0.059 mg/mL; (Time 1 h) 0.079 mg/mL; (Time 2 h) 0.132 mg/mL; (Time 3 h) 0.130 mg/mL; (Time 4 h) 0.128 mg/mL; (Time 17 h) 0.208 mg/mL. Besides, the “Camptothecin Released” value is, setting by setting: (Time 26 h) 0.251 mg/mL; (Time 41 h) 0.335 mg/mL; (Time 65 h) 0.427 mg/mL.
